Assay results from a protein production outcome set (Wang et al. 2014).

Assay: label from the status in PepcDB records

Sequence | protein production
MRLSKEFIGLGIITASLIFGSSLPDIYKGIVILIVAGCLWFFELLPLPVTSLAIPIMAVFLGIFNLKEALTYFAHPIIFLFLGGFMLAQALKNHNLDKFIAYKLLNYGKDFKTTCFLMFLSAYFLSMWISNTSATLILLPIALGLLHKKTGKLRDFLLLGVAYSASIGGIATIIGSPPNAIASSYLDYGFFSWFKVGFPISLLLFLICTLTLYIYFKKWIPKEDIAIQARMELSRNAYKLLVIFVLIASLWIISDYLSEIFNVQYFDSVIAIFAIILLFVFNLVEVNDFKKIDWGTLILFGGALCLGGVIVKSGANTFLSEKLIAILGNLTPIVLLFLVVTITIILTNFISNTGLTGIIVPILFGVSLGIPKEILILAVGMSASCSFILPVGTPPNAIVYSEGVKKEEMMKIGMILSILSAAVITLYSILYL | failed
MTLATATNEHLANISNTLIYSAMAVYTLAFFAYIAEWLFGSRSKVGRTAAALTHKTAAKAPAVTVKSAGGTAVLDRPQVVTRSAPGARDVPDGPGAHGGDEQGDLYGRIAVSLTVLAFAVEAAGVVARALSVQRAPWGNMYEFNITFSTVAVGVYLALLALKKNIRWLGLPLVTTVLLDLGLAVTVLYTASDQLVPALHSYWLYIHVSTAILCGAVFYVGAVGALLYLFKDSYENKLATGGQPGRFATSVMERLPASASLDKFSYRVNAAVFPLWTFTIIAGAIWAGDAWGRYWGWDPKETWAFITWVAYACYLHARATAGWKGRKAAYIALIAFACWLFNYYGVNIFVSGKHSYAGV | failed
GERRIPESRILRREVVEATSAVAAALQIPARAPVIEMTRVRLIDGAPMLAEEIWLPYDRFAAFSRLELDSIGDLLYPVYEAHCNQIVASATETLTVEAIGPAHARLLRIEPGTPAVVIERLAYGYDRRPLEWRRSRGPASEFIYQAEIR | failed
MSQLVTHAFDDATALSFDGRQFHGQVKAEYYNMVGPFGGITAATMLKAAMSHPERLGQPLALTVNFAAPAKVAPFVIEAVPVRTNRSTQHFTLTMMQDGEVVTTATAVFGIRRESWSHTEAVMPDVPPPADVPRFVAPAPLPWMQWYHVRLIRGSAFDEVQDATTYQWMRDDPPRPLDHAALAALCDTFVPRVYVKLKRPVPIGTVTFTVYFLADPETIFRQGTNELLGVARATGFSHGYFDQIGEVWSQDGDLLATTTQLVYMKAPVSGSS | not failed
MIKYILGIVIFIAIVLVAITIGANNDQIITFNYIVAESQFQLSSLVAILFGLGLILGWLITAFFYIKLKLKNMALARQVKRQTLQINELTTTRDKVV | failed
MEVMRGVRVIEGMNGGRFPYCNVVVVGDVVIDAGAGLEVMRKVNASLLVLSHLHPDHSSGAWLFKDVLAPAEGRITLDTLARRFVAPDLVESWKRFISAATGLREFECERYEEGVVVKEPEIVAVPVKGHTMDHHVFLIEQKVLFGADVDLTSFGPFYGNPEADPYLFEREMDKLLDIDFEIFVSAHSKPVFGKEEAEGRILEFKRKIKEREEIILSLLEEPKSLDELVELSPIYGRKPYAKEILDFFERVMIEKHIEKLEMEGRVRKEDGKYVRV | failed
MKQPFERILREICFMVKVEGRKVLRDFGITPAQFDILQKIYFEGPKRPGELSVLLGVAKSTVTGLVKRLEADGYLTRTPDPADRRAYFLVITRKGEEVIEKVIERRENFIEKITSDLGKEKSSKILDYLKELKGVMERNFSKQ | not failed
MSVSVRSYLSPTLVLLAFDWPDAQRRDDFLGFAIKRTPGFWSADGKTRAATSWLPNRLTFDGPAAHTQGDAPTDQAPIQKFMWWDARIDPPDRGRAFRYDVYPVVGTPASLRVLEADAGGCTVTLPAHVEGGVGTWFNRAVVSSQAFAKQVRALRLADGAAPSPDAARRLRTWLANDLEETFGLMLGADARRAVSAVYHLTDPLWAIPAFDAFGRAHGADALAIVYDAHETKRGSGEPPLPSPNQAAVEQLTGVATLAPRDKTRIMHDKFIVAGDEAGPARVLTGSANFTTEGITEQANVLHTFESAALAGLYNACARALASNPCVAETARLAPGWSEPVEVGTARVRVSFSPEPRGARTQIDTIVDAIRGARHSVVFCLFMPTDAALRDACFAAGDRGLMMFGLVNAISARGAQQADADRRDGKTLDAARLANLELYHRSRSNRDVIDAAYFSPATVPAGFEAELRLFPGEAPPPYPPVVVHHKFIVIDAEGANPIVYSGSANMSANSEHYNDENLLEIRDARVAGIYLAEFLRLYEHYRARALAIASRRGNGSGAGGAAGPHGGLALQPDSRWAKKYFVDASPEEKARIALAAPVAAR | failed
